Reference: article PMC7041688 (The Journal of Cell Biology, 2020)
Numbering of substitutions follows the chain as printed. Numbers in names are those of the source.

What was measured:
CHC(1–642)-6xHis = target: T1, CHC(1–642)-6xHis (UniProt Q00610 1-642); test: pull-down
T1 sequence (looked up): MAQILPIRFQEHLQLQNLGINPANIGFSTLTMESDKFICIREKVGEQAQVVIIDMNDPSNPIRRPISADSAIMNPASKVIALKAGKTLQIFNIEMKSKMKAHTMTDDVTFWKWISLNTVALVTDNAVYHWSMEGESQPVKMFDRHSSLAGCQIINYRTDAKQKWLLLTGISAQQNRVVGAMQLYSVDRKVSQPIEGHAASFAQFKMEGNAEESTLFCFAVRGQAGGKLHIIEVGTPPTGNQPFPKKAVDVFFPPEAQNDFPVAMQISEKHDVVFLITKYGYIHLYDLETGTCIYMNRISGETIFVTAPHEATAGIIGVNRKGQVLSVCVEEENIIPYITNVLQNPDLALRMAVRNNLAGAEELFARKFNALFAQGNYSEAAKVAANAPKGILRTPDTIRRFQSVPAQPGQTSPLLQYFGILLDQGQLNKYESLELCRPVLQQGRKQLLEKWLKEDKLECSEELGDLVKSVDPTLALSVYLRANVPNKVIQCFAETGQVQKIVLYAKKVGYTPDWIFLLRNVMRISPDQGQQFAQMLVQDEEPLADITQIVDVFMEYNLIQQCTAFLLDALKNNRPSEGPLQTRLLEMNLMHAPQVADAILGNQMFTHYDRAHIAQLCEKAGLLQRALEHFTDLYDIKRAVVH

CHC(1–364) = target: T2, CHC(1–364) (UniProt Q00610 1-364); test: crystal structure
T2 sequence (looked up): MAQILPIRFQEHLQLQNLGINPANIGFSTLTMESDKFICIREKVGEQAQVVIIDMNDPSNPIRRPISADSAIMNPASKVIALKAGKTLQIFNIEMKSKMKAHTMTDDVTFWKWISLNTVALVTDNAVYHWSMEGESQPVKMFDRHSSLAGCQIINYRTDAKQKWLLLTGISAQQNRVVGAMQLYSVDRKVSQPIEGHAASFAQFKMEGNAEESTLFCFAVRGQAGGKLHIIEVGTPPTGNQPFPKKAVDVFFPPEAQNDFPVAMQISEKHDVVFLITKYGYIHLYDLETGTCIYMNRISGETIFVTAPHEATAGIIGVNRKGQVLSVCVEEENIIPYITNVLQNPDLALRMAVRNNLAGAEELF

[1] = target: T3, GTSE1 (purified recombinant) (human, UniProt Q9NYZ3 1-739); test: pull-down
T3 sequence (looked up): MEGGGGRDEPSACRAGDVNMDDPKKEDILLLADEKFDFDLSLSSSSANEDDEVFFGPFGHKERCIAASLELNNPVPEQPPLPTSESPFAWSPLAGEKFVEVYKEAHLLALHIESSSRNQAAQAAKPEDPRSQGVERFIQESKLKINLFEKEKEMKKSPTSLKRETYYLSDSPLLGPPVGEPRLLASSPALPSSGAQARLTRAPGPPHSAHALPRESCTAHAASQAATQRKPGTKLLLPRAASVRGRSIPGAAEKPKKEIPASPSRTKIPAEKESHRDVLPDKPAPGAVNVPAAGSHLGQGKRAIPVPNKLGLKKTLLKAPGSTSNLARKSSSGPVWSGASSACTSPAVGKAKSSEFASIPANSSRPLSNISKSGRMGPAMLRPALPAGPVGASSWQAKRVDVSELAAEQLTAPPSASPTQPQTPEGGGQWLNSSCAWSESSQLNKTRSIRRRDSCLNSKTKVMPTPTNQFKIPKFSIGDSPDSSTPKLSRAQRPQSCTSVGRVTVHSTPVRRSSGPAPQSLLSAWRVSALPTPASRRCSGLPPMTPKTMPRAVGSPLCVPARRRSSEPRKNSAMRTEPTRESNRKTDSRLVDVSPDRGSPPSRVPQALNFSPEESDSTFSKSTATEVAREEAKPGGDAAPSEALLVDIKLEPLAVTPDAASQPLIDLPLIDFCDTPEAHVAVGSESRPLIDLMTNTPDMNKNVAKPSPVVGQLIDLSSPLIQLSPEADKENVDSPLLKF

GTSE1-GFP (purified) = target: T4, GTSE1-GFP (purified) (human, UniProt Q9NYZ3 1-739); test: pull-down
T4 sequence (looked up): T3 sequence (looked up)

B1: GST-GTSE1-C1 (domain or fragment, human, UniProt Q9NYZ3 652-687, looked up)
chain: PLAVTPDAASQPLIDLPLIDFCDTPEAHVAVGSESR
CHC(1–642)-6xHis
  binding result: binds

B2: GST-GTSE1-C3 (domain or fragment, human, UniProt Q9NYZ3 693-739, looked up)
chain: MTNTPDMNKNVAKPSPVVGQLIDLSSPLIQLSPEADKENVDSPLLKF
CHC(1–642)-6xHis
  binding result: binds

B3: GST-GTSE1-C3 motif E mutant (domain or fragment, human, UniProt Q9NYZ3 693-739, looked up)
chain: B2 chain with L28A, I29A, Q30A
CHC(1–642)-6xHis
  binding result: binds

B4: GTSE1-C4 (domain or fragment, human)
chain: GPLGSQPLIDLPLIDFCDTPEAHVAVGSESRPLIDLMTNTPDMNKNVAKPSPVVGQLIDLSSPLIQLSPE
CHC(1–364)
  binding result: binds

B5: GTSE1-C5 (domain or fragment, human)
chain: GPLGSLAVTPDAASQPLIDLPLIDFCDTPEAHVAVGSESRPLIDLMTNTPDMNKNVAKPSPVVGQLIDLSSP
CHC(1–364)
  binding result: binds

B6: GST-CHC(1–330) (domain or fragment, UniProt Q00610 1-330, looked up)
chain: MAQILPIRFQEHLQLQNLGINPANIGFSTLTMESDKFICIREKVGEQAQVVIIDMNDPSNPIRRPISADSAIMNPASKVIALKAGKTLQIFNIEMKSKMKAHTMTDDVTFWKWISLNTVALVTDNAVYHWSMEGESQPVKMFDRHSSLAGCQIINYRTDAKQKWLLLTGISAQQNRVVGAMQLYSVDRKVSQPIEGHAASFAQFKMEGNAEESTLFCFAVRGQAGGKLHIIEVGTPPTGNQPFPKKAVDVFFPPEAQNDFPVAMQISEKHDVVFLITKYGYIHLYDLETGTCIYMNRISGETIFVTAPHEATAGIIGVNRKGQVLSVCVE
[1]
  binding result: binds
GTSE1-GFP (purified)
  binding result: binds

B7: GST-CHC(1–330) S2M (domain or fragment, UniProt Q00610 1-330, looked up)
chain: B6 chain with Q152L, I154Q
[1]
  binding result: binds
